The values that follow come from US11352401.

The assay has as its target HLA-A*01 (human). The experiment in a line: UV peptide-exchange ELISA; ++++ = yield >75%. Conditions: remark: other sources report otherwise. For orientation: In an ELISA, binding on a coated surface is turned into a signal by an enzyme label.

B1: … (SEQ ID NO: 164) (peptide)
peptide: NTDNNLAVY
In turn, B1 had a peptide exchange yield of more than 75%.
